In patent US6984624B2, “Composition containing an iron complexing protein and a precursor of nitrogen monoxide metabolism and/or a chemical donor of nitrogen monoxide and uses thereof” (Isocell S.A., priority 2000, dated 2006):

Tests used:
[1] = system: Intestinal epithelial cells of the Caco-2 line; experiment: Iron fixation at the cellular level over 16 hours of culture (Example 1, FIG. 1); format: cell-based, human; conditions: Caco-2 cells, no L-arginine
Protocol: Native bovine Lf was treated at pH 1 so as to substitute the unlabeled iron that it contained in the natural state with ^59Fe labeled iron.
The Lf-^59Fe was then purified in order to remove the nonfixed labeled iron, by gel filtration on a column of SEPHADEX® G-75.
(§1) Intestinal epithelial cells of the Caco-2 line derived from a colon cancer were incubated in a proportion of 2×10^6 cells per ml in an RPMI 1640 medium buffered at pH 7.4, in the presence of 25 mmolar of Hepes, containing 15% (v/v) of fetal calf serum, 2 mmol/l of L-glutamine and 1% (v/v) of a solution of streptomycin-penicillin, sold by the company Gibco.
(§2) Iron fixation at the cellular level was then initiated by adding Lf-^59Fe and/or labeled iron and/or L-arginine.
(§3) One of the cell culture tubes received none of these three constituents, so as to act as a control.
The distribution of the constituents, and also the concentrations at which they were used, appear in Table I below:
The cells were then incubated for a period of 16 hours in Eppendorf tubes kept stirring for the final 2 hours of the culture period. Throughout the incubation period, the amount of cellular iron was measured by centrifugation pellet of the cells a first time after 30 minutes (t=0.5), then after one hour (t=1), and then every hour (t=2 to t=16), using a device for measuring the radioactivity.

[2] = system: Intestinal epithelial cells of the Caco-2 line; experiment: Degree of iron fixation at the cellular level as a function of concentrations (Example 3); format: cell-based, human; conditions: Caco-2 cells, after 72 hours of incubation; tube contents per Table III (mg/ml); Control = 1
Protocol: as §1
Twelve tubes of epithelial cell cultures were prepared according to the conditions described above in Example 1.
as §2, §3
The distribution of the constituents, and also the concentrations at which they were used, appear in Table III below:
The degree of cellular fixation of iron was measured after 72 hours of incubation using a device for measuring the radioactivity.

Molecule	Persistence of the iron fixed in the cell [1]	Degree of iron fixation in the cells (cpm ^59Fe) [2]
Lf-^59Fe: Native bovine lactoferrin treated at pH 1 and saturated with ^59Fe labeled iron (85% to 100% saturation) (protein, UniProt P24627 20-708, looked up, 59Fe iron-saturated) Lactotransferrin: APRKNVRWCTISQPEWFKCRRWQWRMKKLGAPSITCVRRAFALECIRAIAEKKADAVTLDGGMVFEAGRDPYKLRPVAAEIYGTKESPQTHYYAVAVVKKGSNFQLDQLQGRKSCHTGLGRSAGWIIPMGILRPYLSWTESLEPLQGAVAKFFSASCVPCIDRQAYPNLCQLCKGEGENQCACSSREPYFGYSGAFKCLQDGAGDVAFVKETTVFENLPEKADRDQYELLCLNNSRAPVDAFKECHLAQVPSHAVVARSVDGKEDLIWKLLSKAQEKFGKNKSRSFQLFGSPPGQRDLLFKDSALGFLRIPSKVDSALYLGSRYLTTLKNLRETAEEVKARYTRVVWCAVGPEEQKKCQQWSQQSGQNVTCATASTTDDCIVLVLKGEADALNLDGGYIYTAGKCGLVPVLAENRKSSKHSSLDCVLRPTEGYLAVAVVKKANEGLTWNSLKDKKSCHTAVDRTAGWNIPMGLIVNQTGSCAFDEFFSQSCAPGADPKSRLCALCAGDDQGLDKCVPNSKEKYYGYTGAFRCLAEDVGDVAFVKNDTVWENTNGESTADWAKNLNREDFRLLCLDGTRKPVTEAQSCHLAVAPNHAVVSRSDRAAHVKQVLLHQQALFGKNGKNCPDKFCLFKSETKNLLFNDNTECLAKLGGRPTYEEYLGTEYVTAIANLKKCSTSPLLEACAFLTR	only transiently fixed	
Cell culture tube 3: Table III tube: Lf-^59Fe 0.01 mg/ml alone (protein, UniProt P24627 20-708, looked up, 59Fe iron-saturated) Lactotransferrin: APRKNVRWCTISQPEWFKCRRWQWRMKKLGAPSITCVRRAFALECIRAIAEKKADAVTLDGGMVFEAGRDPYKLRPVAAEIYGTKESPQTHYYAVAVVKKGSNFQLDQLQGRKSCHTGLGRSAGWIIPMGILRPYLSWTESLEPLQGAVAKFFSASCVPCIDRQAYPNLCQLCKGEGENQCACSSREPYFGYSGAFKCLQDGAGDVAFVKETTVFENLPEKADRDQYELLCLNNSRAPVDAFKECHLAQVPSHAVVARSVDGKEDLIWKLLSKAQEKFGKNKSRSFQLFGSPPGQRDLLFKDSALGFLRIPSKVDSALYLGSRYLTTLKNLRETAEEVKARYTRVVWCAVGPEEQKKCQQWSQQSGQNVTCATASTTDDCIVLVLKGEADALNLDGGYIYTAGKCGLVPVLAENRKSSKHSSLDCVLRPTEGYLAVAVVKKANEGLTWNSLKDKKSCHTAVDRTAGWNIPMGLIVNQTGSCAFDEFFSQSCAPGADPKSRLCALCAGDDQGLDKCVPNSKEKYYGYTGAFRCLAEDVGDVAFVKNDTVWENTNGESTADWAKNLNREDFRLLCLDGTRKPVTEAQSCHLAVAPNHAVVSRSDRAAHVKQVLLHQQALFGKNGKNCPDKFCLFKSETKNLLFNDNTECLAKLGGRPTYEEYLGTEYVTAIANLKKCSTSPLLEACAFLTR		1.1 ± 0.1 cpm ^59Fe
Cell culture tube 2: Table III tube: Lf-^59Fe 0.1 mg/ml alone (protein, UniProt P24627 20-708, looked up, 59Fe iron-saturated) Lactotransferrin: APRKNVRWCTISQPEWFKCRRWQWRMKKLGAPSITCVRRAFALECIRAIAEKKADAVTLDGGMVFEAGRDPYKLRPVAAEIYGTKESPQTHYYAVAVVKKGSNFQLDQLQGRKSCHTGLGRSAGWIIPMGILRPYLSWTESLEPLQGAVAKFFSASCVPCIDRQAYPNLCQLCKGEGENQCACSSREPYFGYSGAFKCLQDGAGDVAFVKETTVFENLPEKADRDQYELLCLNNSRAPVDAFKECHLAQVPSHAVVARSVDGKEDLIWKLLSKAQEKFGKNKSRSFQLFGSPPGQRDLLFKDSALGFLRIPSKVDSALYLGSRYLTTLKNLRETAEEVKARYTRVVWCAVGPEEQKKCQQWSQQSGQNVTCATASTTDDCIVLVLKGEADALNLDGGYIYTAGKCGLVPVLAENRKSSKHSSLDCVLRPTEGYLAVAVVKKANEGLTWNSLKDKKSCHTAVDRTAGWNIPMGLIVNQTGSCAFDEFFSQSCAPGADPKSRLCALCAGDDQGLDKCVPNSKEKYYGYTGAFRCLAEDVGDVAFVKNDTVWENTNGESTADWAKNLNREDFRLLCLDGTRKPVTEAQSCHLAVAPNHAVVSRSDRAAHVKQVLLHQQALFGKNGKNCPDKFCLFKSETKNLLFNDNTECLAKLGGRPTYEEYLGTEYVTAIANLKKCSTSPLLEACAFLTR		1.0 ± 0.2 cpm ^59Fe
Cell culture tube 1: Table III tube: Lf-^59Fe 1 mg/ml alone (protein, UniProt P24627 20-708, looked up, 59Fe iron-saturated) Lactotransferrin: APRKNVRWCTISQPEWFKCRRWQWRMKKLGAPSITCVRRAFALECIRAIAEKKADAVTLDGGMVFEAGRDPYKLRPVAAEIYGTKESPQTHYYAVAVVKKGSNFQLDQLQGRKSCHTGLGRSAGWIIPMGILRPYLSWTESLEPLQGAVAKFFSASCVPCIDRQAYPNLCQLCKGEGENQCACSSREPYFGYSGAFKCLQDGAGDVAFVKETTVFENLPEKADRDQYELLCLNNSRAPVDAFKECHLAQVPSHAVVARSVDGKEDLIWKLLSKAQEKFGKNKSRSFQLFGSPPGQRDLLFKDSALGFLRIPSKVDSALYLGSRYLTTLKNLRETAEEVKARYTRVVWCAVGPEEQKKCQQWSQQSGQNVTCATASTTDDCIVLVLKGEADALNLDGGYIYTAGKCGLVPVLAENRKSSKHSSLDCVLRPTEGYLAVAVVKKANEGLTWNSLKDKKSCHTAVDRTAGWNIPMGLIVNQTGSCAFDEFFSQSCAPGADPKSRLCALCAGDDQGLDKCVPNSKEKYYGYTGAFRCLAEDVGDVAFVKNDTVWENTNGESTADWAKNLNREDFRLLCLDGTRKPVTEAQSCHLAVAPNHAVVSRSDRAAHVKQVLLHQQALFGKNGKNCPDKFCLFKSETKNLLFNDNTECLAKLGGRPTYEEYLGTEYVTAIANLKKCSTSPLLEACAFLTR		1.2 ± 0.1 cpm ^59Fe
